Results on eleven molecules are retold here after article PMC5548930.

Test [1] addresses Endothelin-1 (Homo sapiens) (UniProt P05305). Conditions: cited from earlier work.
Test [2] deals with T1, Gαi3 protein, P08754.
T1 chain: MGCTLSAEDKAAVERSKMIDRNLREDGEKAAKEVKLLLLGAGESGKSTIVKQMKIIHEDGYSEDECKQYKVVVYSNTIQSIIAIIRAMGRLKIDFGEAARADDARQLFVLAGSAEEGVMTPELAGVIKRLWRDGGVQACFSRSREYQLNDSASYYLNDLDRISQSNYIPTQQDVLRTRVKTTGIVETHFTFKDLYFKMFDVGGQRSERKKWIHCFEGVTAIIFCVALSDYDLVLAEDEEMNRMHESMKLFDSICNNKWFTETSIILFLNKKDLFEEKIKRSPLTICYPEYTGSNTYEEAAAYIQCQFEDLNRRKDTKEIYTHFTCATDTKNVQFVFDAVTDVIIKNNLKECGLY
Briefly: ELISA (immobilized Gαi3, bound P9-ETA detected with anti-P9 antibody). As to conditions: chain shown with the change; 1 μM mutant; parent: est. 100; read off a plot. A general note: In an ELISA, binding on a coated surface is turned into a signal by an enzyme label.

The target in test [3] is T2, C-terminally biotinylated endothelin-1.
T2 chain: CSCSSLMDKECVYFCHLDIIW
The experiment in a line: ELISA (immobilized purified P9-ETA proteins, bET-1 detected with SA-HRP). Conditions: chain shown with the change; 5 μM bET-1; proteins reconstituted with APG; parent: est. 100; read off a plot.

Usually Kd stands for the free concentration of one partner at which half of the binding sites on the other are occupied at equilibrium, for simple one-to-one binding.

Where a chain is given by its changes, count along the chain named. Numbers in names are those of the source.

For “Endothelin receptor type A (P9-ETA fusion) (from UniProt P25101)”, the equilibrium dissociation constant (Kd) in test [1] was 60 nM.

B1: wild type P9-ETA (human endothelin receptor type A with N-terminal P9 fusion), P25101 G261W (protein)
chain: DNPERYSTNLSNHVDDFTTFRGTELSFLVTTHQPTNLVLPSNGSMHNYCPQQTKITSAFKYINTVISCTIFIVGMVGNATLLRIIYQNKCMRNGPNALIASLALGDLIYVVIDLPINVFKLLAGRWPFDHNDFGVFLCKLFPFLQKSSVGITVLNLCALSVDRYRAVASWSRVQGIGIPLVTAIEIVSIWILSFILAIPEAIGFVMVPFEYRGEQHKTCMLNATSKFMEFYQDVKDWWLFWFYFCMPLVCTAIFYTLMTCEMLNRRNGSLRIALSEHLKQRREVAKTVFCLVVIFALCWFPLHLSRILKKTVYNEMDKNRCELLSFLLLMDYIGINLATMNSCINPIALYFVSKKFKNCFQSCLCCCCYQSKSLMTSVPMNGTSIQWKNHDQNNHNTDRSSHKDSMN
In the case of B1, the percent of parent is 110 % of w.t in test [2] and 31 % of w.t in test [3].

B2: wild type P9-ETA (human endothelin receptor type A with N-terminal P9 fusion), P25101 F346C (protein)
chain: B1 chain with W241G, F326C
On to B2, for which the percent of parent was 140 % of w.t in test [2] and 26 % of w.t in test [3].

B3: wild type P9-ETA (human endothelin receptor type A with N-terminal P9 fusion), P25101 D35N (protein)
chain: B1 chain with D15N, W241G
In the case of B3, the percent of parent in test [2] was 92 % of w.t; in test [3], 29 % of w.t.

B4: wild type P9-ETA (human endothelin receptor type A with N-terminal P9 fusion), P25101 N29D (protein)
chain: B1 chain with N9D, W241G
Regarding B4, the percent of parent in test [2] is 130 % of w.t; in test [3], 42 % of w.t.

B5: wild type P9-ETA (human endothelin receptor type A with N-terminal P9 fusion), P25101 S213L (protein)
chain: B1 chain with S193L, W241G
Turning to B5, the percent of parent in test [2] was 160 % of w.t; in test [3], 130 % of w.t.

B6: wild type P9-ETA (human endothelin receptor type A with N-terminal P9 fusion), P25101 C69S (protein)
chain: B1 chain with C49S, W241G
On to B6, for which the percent of parent in test [2] is 97 % of w.t; in test [3], 59 % of w.t.

B7: wild type P9-ETA (human endothelin receptor type A with N-terminal P9 fusion), P25101 M65K (protein)
chain: B1 chain with M45K, W241G
For the molecule B7, the figures for the percent of parent in test [2] and in test [3] were 120 % of w.t and 3 % of w.t, respectively.

B8: wild type P9-ETA (human endothelin receptor type A with N-terminal P9 fusion), P25101 L59P (protein)
chain: B1 chain with L39P, W241G
In the case of B8, the percent of parent is 93 % of w.t in test [2] and 66 % of w.t in test [3].

B9: wild type P9-ETA (human endothelin receptor type A with N-terminal P9 fusion), P25101 F161L (protein)
chain: B1 chain with F141L, W241G
Turning to B9, the values for the percent of parent in test [2] and in test [3] were 120 % of w.t and 50 % of w.t, respectively.

B10: wild type P9-ETA (human endothelin receptor type A with N-terminal P9 fusion), P25101 K140I (protein)
chain: B1 chain with K120I, W241G
In the case of B10, the percent of parent was 110 % of w.t in test [2] and 18 % of w.t in test [3].
